According to IntAct's records for PubMed 24725409:

B1: Cadherin-related family member 2 (Homo sapiens), Q9BYE9 (parent)
chain: MAQLWLSCFLLPALVVSVAANVAPKFLANMTSVILPEDLPVGAQAFWLVAEDQDNDPLTYGMSGPNAYFFAVTPKTGEVKLASALDYETLYTFKVTISVSDPYIQVQREMLVIVEDRNDNAPVFQNTAFSTSINETLPVGSVVFSVLAVDKDMGSAGMVVYSIEKVIPSTGDSEHLFRILANGSIVLNGSLSYNNKSAFYQLELKACDLGGMYHNTFTIQCSLPVFLSISVVDQPDLDPQFVREFYSASVAEDAAKGTSVLTVEAVDGDKGINDPVIYSISYSTRPGWFDIGADGVIRVNGSLDREQLLEADEEVQLQVTATETHLNIYGQEAKVSIWVTVRVMDVNDHKPEFYNCSLPACTFTPEEAQVNFTGYVDEHASPRIPIDDLTMVVYDPDKGSNGTFLLSLGGPDAEAFSVSPERAVGSASVQVLVRVSALVDYERQTAMAVQVVATDSVSQNFSVAMVTIHLRDINDHRPTFPQSLYVLTVPEHSATGSVVTDSIHATDPDTGAWGQITYSLLPGNGADLFQVDPVSGTVTVRNGELLDRESQAVYYLTLQATDGGNLSSSTTLQIHLLDINDNAPVVSGSYNIFVQEEEGNVSVTIQAHDNDEPGTNNSRLLFNLLPGPYSHNFSLDPDTGLLRNLGPLDREAIDPALEGRIVLTVLVSDCGEPVLGTKVNVTITVEDINDNLPIFNQSSYNFTVKEEDPGVLVGVVKAWDADQTEANNRISFSLSGSGANYFMIRGLVLGAGWAEGYLRLPPDVSLDYETQPVFNLTVSAENPDPQGGETIVDVCVNVKDVNDNPPTLDVASLRGIRVAENGSQHGQVAVVVASDVDTSAQLEIQLVNILCTKAGVDVGSLCWGWFSVAANGSVYINQSKAIDYEACDLVTLVVRACDLATDPGFQAYSNNGSLLITIEDVNDNAPYFLPENKTFVIIPELVLPNREVASVRARDDDSGNNGVILFSILRVDFISKDGATIPFQGVFSIFTSSEADVFAGSIQPVTSLDSTLQGTYQVTVQARDRPSLGPFLEATTTLNLFTVDQSYRSRLQFSTPKEEVGANRQAINAALTQATRTTVYIVDIQDIDSAARARPHSYLDAYFVFPNGSALTLDELSVMIRNDQDSLTQLLQLGLVVLGSQESQESDLSKQLISVIIGLGVALLLVLVIMTMAFVCVRKSYNRKLQAMKAAKEARKTAAGVMPSAPAIPGTNMYNTERANPMLNLPNKDLGLEYLSPSNDLDSVSVNSLDDNSVDVDKNSQEIKEHRPPHTPPEPDPEPLSVVLLGRQAGASGQLEGPSYTNAGLDTTDL
partner: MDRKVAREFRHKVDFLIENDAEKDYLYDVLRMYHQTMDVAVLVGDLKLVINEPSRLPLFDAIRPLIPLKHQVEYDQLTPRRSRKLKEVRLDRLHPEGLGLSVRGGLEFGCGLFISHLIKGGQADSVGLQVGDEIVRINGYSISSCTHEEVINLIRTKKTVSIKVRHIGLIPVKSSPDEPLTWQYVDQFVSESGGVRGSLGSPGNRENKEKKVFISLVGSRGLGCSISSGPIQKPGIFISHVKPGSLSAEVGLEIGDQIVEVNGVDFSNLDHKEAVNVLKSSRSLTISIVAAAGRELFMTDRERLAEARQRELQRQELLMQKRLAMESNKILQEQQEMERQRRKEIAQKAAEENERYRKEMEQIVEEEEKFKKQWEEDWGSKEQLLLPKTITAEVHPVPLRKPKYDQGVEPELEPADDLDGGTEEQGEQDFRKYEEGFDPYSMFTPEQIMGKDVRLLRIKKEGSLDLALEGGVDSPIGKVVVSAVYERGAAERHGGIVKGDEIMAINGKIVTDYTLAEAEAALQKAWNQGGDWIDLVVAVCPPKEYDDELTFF
B2: Cadherin-related family member 5 (Homo sapiens), Q9HBB8-2 (parent)
chain: MGSWALLWPPLLFTGLLVRPPGTMAQAQYCSVNKDIFEVEENTNVTEPLVDIHVPEGQEVTLGALSTPFAFRIQGNQLFLNVTPDYEEKSLLEAQLLCQSGGTLVTQLRVFVSVLDVNDNAPEFPFKTKEIRVEEDTKVNSTVIPETQLQAEDRDKDDILFYTLQEMTAGASDYFSLVSVNRPALRLDRPLDFYERPNMTFWLLVRDTPGENVEPSHTATATLVLNVVPADLRPPWFLPCTFSDGYVCIQAQYHGAVPTGHILPSPLVLRPGPIYAEDGDRGINQPIIYSIFRGNVNGTFIIHPDSGNLTVARSVPSPMTFLLLVKGQQADLARYSVTQVTVEAVAAAGSPPRFPQRLYRGTVARGAGAGVVVKDAAAPSQPLRIQAQDPEFSDLNSAITYRITNHSHFRMEGEVVLTTTTLAQAGAFYAEVEAHNTVTSGTATTVIEIQVSEQEPPSTGGGPSEDKRFSVVDMAALGGVLGALLLLALLGLAVLVHKHYGPRLKCCCGKAPEPQPQGFDNQAFLPDHKANWAPVPSPTHDPKPAEAPMPAEPAPPGPASPGGAPEPPAAARAGGSPTAVRSILTKERRPEGGYKAVWFGEDIGTEADVVVLNAPTLDVDGASDSGSGDEGEGAGRGGGPYDAPGGDDSYI
partner: B1 chain
B3: Cadherin-related family member 5 (Homo sapiens), Q9HBB8 (parent)
chain: MGSWALLWPPLLFTGLLVRPPGTMAQAQYCSVNKDIFEVEENTNVTEPLVDIHVPEGQEVTLGALSTPFAFRIQGNQLFLNVTPDYEEKSLLEAQLLCQSGGTLVTQLRVFVSVLDVNDNAPEFPFKTKEIRVEEDTKVNSTVIPETQLQAEDRDKDDILFYTLQEMTAGASDYFSLVSVNRPALRLDRPLDFYERPNMTFWLLVRDTPGENVEPSHTATATLVLNVVPADLRPPWFLPCTFSDGYVCIQAQYHGAVPTGHILPSPLVLRPGPIYAEDGDRGINQPIIYSIFRGNVNGTFIIHPDSGNLTVARSVPSPMTFLLLVKGQQADLARYSVTQVTVEAVAAAGSPPRFPQRLYRGTVARGAGAGVVVKDAAAPSQPLRIQAQDPEFSDLNSAITYRITNHSHFRMEGEVVLTTTTLAQAGAFYAEVEAHNTVTSGTATTVIEIQVSEQEPPSTDVPPSPEAGGTTGPWTSTTSEVPRPPEPSQGPSTTSSGGGTGPHPPSGTTLRPPTSSTPGGPPGAENSTSHQPATPGGDTAQTPKPGTSQPMPPGVGTSTSHQPATPSGGTAQTPEPGTSQPMPPSMGTSTSHQPATPGGGTAQTPEAGTSQPMPPGMGTSTSHQPTTPGGGTAQTPEPGTSQPMPLSKSTPSSGGGPSEDKRFSVVDMAALGGVLGALLLLALLGLAVLVHKHYGPRLKCCCGKAPEPQPQGFDNQAFLPDHKANWAPVPSPTHDPKPAEAPMPAEPAPPGPASPGGAPEPPAAARAGGSPTAVRSILTKERRPEGGYKAVWFGEDIGTEADVVVLNAPTLDVDGASDSGSGDEGEGAGRGGGPYDAPGGDDSYI
partner: B1 partner

Variants of: B1
Conditions: with USH1C

| Variant | effect of a mutation on the interaction |
| --- | --- |
| L1310R | disrupting interaction strength |

Variants of: B2
Conditions: with cdhr2_human CDHR2, Q9BYE9

| Variant | effect of a mutation on the interaction |
| --- | --- |
| R109G | disrupting interaction strength |

Variants of: B3
Conditions: with USH1C

| Variant | effect of a mutation on the interaction |
| --- | --- |
| I845R | disrupting interaction strength |
